Measurements from ChEMBL document CHEMBL4229398, “Activities of recombinant human bleomycin hydrolase on bleomycins and engineered analogues revealing new opportunities to overcome bleomycin-induced pulmonary toxicity” (Bioorg Med Chem Lett, 2018).

Assays:
Format in all cases: ADME
Bleomycin hydrolase [1] = target: T1, Bleomycin hydrolase (Homo sapiens, UniProt Q13867); experiment: Substrate activity at recombinant human N-terminal His6-tagged BLMH expressed in Escherichia coli BL21(DE3) assessed as Kcat to Km ratio measured after 1 hr by HPLC-based Michaelis-Menten plot analysis relative to BLM B2
T1 sequence (Q13867 whole entry): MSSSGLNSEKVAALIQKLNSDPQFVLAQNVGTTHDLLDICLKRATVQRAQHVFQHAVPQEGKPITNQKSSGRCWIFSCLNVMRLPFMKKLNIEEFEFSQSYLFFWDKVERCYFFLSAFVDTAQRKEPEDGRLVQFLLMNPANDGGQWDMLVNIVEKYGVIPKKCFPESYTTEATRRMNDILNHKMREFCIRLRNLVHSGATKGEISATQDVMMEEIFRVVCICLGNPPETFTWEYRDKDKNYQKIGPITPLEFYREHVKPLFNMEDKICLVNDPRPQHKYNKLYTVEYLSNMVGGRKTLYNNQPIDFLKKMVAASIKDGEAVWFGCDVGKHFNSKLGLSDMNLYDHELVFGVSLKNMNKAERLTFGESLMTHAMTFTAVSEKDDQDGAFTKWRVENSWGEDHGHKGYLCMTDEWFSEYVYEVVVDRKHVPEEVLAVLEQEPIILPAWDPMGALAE

Bleomycin hydrolase [2] = target: T1, Bleomycin hydrolase; experiment: (§1) Substrate activity at recombinant human N-terminal His6-tagged BLMH expressed in Escherichia coli BL21(DE3) measured after 1 hr by HPLC-based Michaelis-Menten plot analysis
Bleomycin hydrolase [3] = target: T1, Bleomycin hydrolase; experiment: Substrate activity at recombinant human N-terminal His6-tagged BLMH expressed in Escherichia coli BL21(DE3) assessed as Kcat to Km ratio measured after 1 hr by HPLC-based Michaelis-Menten plot analysis
Bleomycin hydrolase [4] = target: T1, Bleomycin hydrolase; experiment: (§2) Substrate activity at recombinant human BLMH expressed in baculovirus infected Sf9 insect cells assessed as Kcat to Km ratio
[5] = substrate: Cc1c(N)nc([C@H](CC(N)=O)NC[C@H](N)C(N)=O)nc1C(=O)N[C@H](C(=O)N[C@H](C)[C@@H](O)[C@H](C)C(=O)N[C@H](C(=O)NCCc1nc(-c2nc(C(=O)NCCCCNC(=N)N)cs2)cs1)[C@@H](C)O)[C@@H](O[C@@H]1O[C@@H](CO)[C@@H](O)[C@H](O)[C@@H]1O[C@H]1O[C@H](CO)[C@@H](O)[C@H](OC(N)=O)[C@@H]1O)c1c[nH]cn1; experiment: as §1
[6] = substrate: [H][C@]1(O[C@@H]2[C@H](O[C@@H](c3c[nH]cn3)[C@H](NC(=O)c3nc([C@H](CC(N)=O)NC[C@H](N)C(N)=O)nc(N)c3C)C(=O)N[C@H](C)[C@@H](O)CC(=O)N[C@H](C(=O)NCCc3nc(-c4nc(C(=O)NCCCC(N)CC(=O)NCCCNCCCCN)cs4)cs3)[C@@H](C)O)O[C@@H](C)[C@@H](O)[C@@H]2O)O[C@H](CO)[C@@H](O)[C@H](OC(N)=O)[C@@H]1O; experiment: as §1
[7] = substrate: [H][C@]1(O[C@@H]2[C@H](O[C@@H](c3c[nH]cn3)[C@H](NC(=O)c3nc([C@H](CC(N)=O)NC[C@H](N)C(N)=O)nc(N)c3C)C(=O)N[C@H](C)[C@@H](O)CC(=O)N[C@H](C(=O)NCCc3nc(-c4nc(C(=O)NCCCC(N)CC(=O)NCCCNCCCCN)cs4)cs3)[C@@H](C)O)O[C@@H](CO)[C@@H](O)[C@@H]2O)O[C@H](CO)[C@@H](O)[C@H](OC(N)=O)[C@@H]1O; experiment: as §1
[8] = substrate: [H][C@]1(O[C@@H]2[C@H](O[C@@H](c3c[nH]cn3)[C@H](NC(=O)c3nc([C@H](CC(N)=O)NC[C@H](N)C(N)=O)nc(N)c3C)C(=O)N[C@H](C)[C@@H](O)[C@H](C)C(=O)N[C@H](C(=O)NCCc3nc(-c4nc(C(=O)NCCC(=N)N)cs4)cs3)[C@@H](C)O)O[C@@H](C)[C@@H](O)[C@@H]2O)O[C@H](CO)[C@@H](O)[C@H](OC(N)=O)[C@@H]1O; experiment: as §1
[9] = substrate: [H][C@]1(O[C@@H]2[C@H](O[C@@H](c3c[nH]cn3)[C@H](NC(=O)c3nc([C@H](CC(N)=O)NC[C@H](N)C(N)=O)nc(N)c3C)C(=O)N[C@H](C)[C@@H](O)[C@H](C)C(=O)N[C@H](C(=O)NCCc3nc(-c4nc(C(=O)NCCC(=N)N)cs4)cs3)[C@@H](C)O)O[C@@H](CO)[C@@H](O)[C@@H]2O)O[C@H](CO)[C@@H](O)[C@H](OC(N)=O)[C@@H]1O; experiment: as §1
[10] = substrate: [H][C@]1(O[C@@H]2[C@H](O[C@@H](c3c[nH]cn3)[C@H](NC(=O)c3nc([C@H](CC(N)=O)NC[C@H](N)C(N)=O)nc(N)c3C)C(=O)N[C@H](C)[C@@H](O)[C@H](C)C(=O)N[C@H](C(=O)NCCc3nc(-c4nc(C(=O)NCCC[S+](C)C)cs4)cs3)[C@@H](C)O)O[C@@H](C)[C@@H](O)[C@@H]2O)O[C@H](CO)[C@@H](O)[C@H](OC(N)=O)[C@@H]1O; experiment: as §1
[11] = substrate: Cc1c(N)nc([C@H](CC(N)=O)NC[C@H](N)C(N)=O)nc1C(=O)N[C@H](C(=O)N[C@H](C)[C@@H](O)[C@H](C)C(=O)N[C@H](C(=O)NCCc1nc(-c2nc(C(=O)NCCCCNC(=N)N)cs2)cs1)[C@@H](C)O)[C@@H](O[C@@H]1O[C@@H](CO)[C@@H](O)[C@H](O)[C@@H]1O[C@H]1O[C@H](CO)[C@@H](O)[C@H](OC(N)=O)[C@@H]1O)c1c[nH]cn1; experiment: as §2

Cc1c(N)nc([C@H](CC(N)=O)NC[C@H](N)C(N)=O)nc1C(=O)N[C@H](C(=O)N[C@H](C)[C@@H](O)CC(=O)N[C@H](C(=O)NCCc1nc(-c2nc(C(=O)NCCCC(N)CC(=O)NCCCNCCCCN)cs2)cs1)[C@@H](C)O)[C@@H](O[C@@H]1O[C@@H](C)[C@@H](O)[C@H](O)[C@@H]1O[C@H]1O[C@H](CO)[C@@H](O)[C@H](OC(N)=O)[C@@H]1O)c1c[nH]cn1 (stereo partly drawn)
fold change (FC) (Bleomycin hydrolase [1]): 0.06

Cc1c(N)nc([C@H](CC(N)=O)NC[C@H](N)C(N)=O)nc1C(=O)N[C@H](C(=O)N[C@H](C)[C@@H](O)[C@H](C)C(=O)N[C@H](C(=O)NCCc1nc(-c2nc(C(=O)NCCC(=N)N)cs2)cs1)[C@@H](C)O)[C@@H](O[C@@H]1O[C@@H](CO)[C@@H](O)[C@H](O)[C@@H]1O[C@H]1O[C@H](CO)[C@@H](O)[C@H](OC(N)=O)[C@@H]1O)c1c[nH]cn1
fold change (FC) (Bleomycin hydrolase [1]): 0.19

Cc1c(N)nc([C@H](CC(N)=O)NC[C@H](N)C(N)=O)nc1C(=O)N[C@H](C(=O)N[C@H](C)[C@@H](O)[C@H](C)C(=O)N[C@H](C(=O)NCCc1nc(-c2nc(C(=O)NCCC(=N)N)cs2)cs1)[C@@H](C)O)[C@@H](O[C@@H]1O[C@@H](C)[C@@H](O)[C@H](O)[C@@H]1O[C@H]1O[C@H](CO)[C@@H](O)[C@H](OC(N)=O)[C@@H]1O)c1c[nH]cn1
fold change (FC) (Bleomycin hydrolase [1]): 0.28

Cc1c(N)nc([C@H](CC(N)=O)NC[C@H](N)C(N)=O)nc1C(=O)N[C@H](C(=O)N[C@H](C)[C@@H](O)CC(=O)N[C@H](C(=O)NCCc1nc(-c2nc(C(=O)NCCCC(N)CC(=O)NCCCNCCCCN)cs2)cs1)[C@@H](C)O)[C@@H](O[C@@H]1O[C@@H](CO)[C@@H](O)[C@H](O)[C@@H]1O[C@H]1O[C@H](CO)[C@@H](O)[C@H](OC(N)=O)[C@@H]1O)c1c[nH]cn1 (stereo partly drawn)
fold change (FC) (Bleomycin hydrolase [1]): 0.06

Cc1c(N)nc([C@H](CC(N)=O)NC[C@H](N)C(N)=O)nc1C(=O)N[C@H](C(=O)N[C@H](C)[C@@H](O)[C@H](C)C(=O)N[C@H](C(=O)NCCc1nc(-c2nc(C(=O)NCCC[S+](C)C)cs2)cs1)[C@@H](C)O)[C@@H](O[C@@H]1O[C@@H](C)[C@@H](O)[C@H](O)[C@@H]1O[C@H]1O[C@H](CO)[C@@H](O)[C@H](OC(N)=O)[C@@H]1O)c1c[nH]cn1
fold change (FC) (Bleomycin hydrolase [1]): 0.11

BLEOMYCIN
Kcat (Bleomycin hydrolase [2]): 4 s⁻¹
Km (Bleomycin hydrolase [2]): 592 µM
Kcat/Km (Bleomycin hydrolase [3]): 6.7 ×10⁻³ /microM/s
fold change (FC) (Bleomycin hydrolase [1]): 0.12
Kcat/Km (Bleomycin hydrolase [4]): 5000 M⁻¹ s⁻¹

B1: Bleomycin hydrolase (Homo sapiens) (protein)
chain: T1 sequence (Q13867 whole entry)
Km [5]: 190 µM
kcat [5]: 11 s⁻¹
Km [6]: 720 µM
kcat [6]: 2.5 s⁻¹
kcat/Km [6]: 3500 M⁻¹ s⁻¹
Km [7]: 743 µM
kcat [7]: 2.4 s⁻¹
kcat/Km [7]: 3200 M⁻¹ s⁻¹
Km [8]: 942 µM
kcat [8]: 15 s⁻¹
kcat/Km [8]: 16000 M⁻¹ s⁻¹
Km [9]: 854 µM
kcat [9]: 9.8 s⁻¹
kcat/Km [9]: 11000 M⁻¹ s⁻¹
Km [10]: 805 µM
kcat [10]: 4.9 s⁻¹
kcat/Km [10]: 6100 M⁻¹ s⁻¹
kcat/Km [11]: 12000 M⁻¹ s⁻¹
